The target of assay [1] is biotinylated 4E10 epitope peptide. In words: SPR, biotinylated 4E10 epitope peptide on SA chip, 4E10 scFv flowing.
The target of assay [2] is HXB2-gp41-interf-GCN4 (HIV-1 isolate HXB2) (UniProt P04578). In words: SPR, His-4E10 scFv on Ni-NTA chip, HXB2gp41-interf-GCN4 flowing at 50 nM, single concentration. A general note: SPR reads the build-up and loss of mass on a sensor chip optically.
The target of assay [3] is 92UG-gp41-inter-Fd (HIV-1 isolate 92UG037.8). In words: SPR, 92UGgp41-inter-Fd immobilized on CM-5, 4E10 scFv flowing at 50 nM, single concentration.
The target in assay [4] is monomeric 92UG-gp120 core protein (HIV-1 isolate 92UG037). In words: SPR; told with a reference to Rits-Volloch et al. 2006 and FIG. 6C.
Assay [5] has the same target. In words: SPR, b12 IgG immobilized, 92UG gp120 flowing, single analyte concentration.
Assay [6] shares this target. In words: SPR, b6 IgG immobilized, 92UG gp120 flowing, single analyte concentration.
Assay [7] concerns the target short 2F5 epitope peptide. In words: SPR, 2F5 epitope peptide immobilized, 2F5 Fab flowing.
In assay [8] the target is 92UG-gp41-inter-Fd (HIV-1 isolate 92UG037.8). In words: SPR, told of the gp41-inter proteins as a group; Table 1 ties this value to 92UGgp41-inter-Fd.
Assay [9] shares this target. In words: SPR, 92UGgp41-inter-Fd immobilized, 2F5 Fab flowing.
Assay [10] shares this target. In words: SPR, 2F5 Fab immobilized, 92UGgp41-inter-Fd flowing, 1:1 Langmuir model.
Assay [11] deals with HXB2-gp41-inter-GCN4 (HIV-1 isolate HXB2) (UniProt P04578). In words: SPR, 2F5 Fab immobilized, HXB2gp41-inter-GCN4 flowing; dissociation phase virtually flat, actual off-rate probably slower.
In assay [12] the target is 92UG-gp41-post (HIV-1 isolate 92UG037.8). In words: SPR, 2F5 Fab immobilized, 92UGgp41-post flowing.
The target of assay [13] is 92UG-gp41-inter-Fd (HIV-1 isolate 92UG037.8). In words: SPR, 2F5 Fab immobilized, 92UGgp41-inter-Fd flowing; dissociation phase virtually flat, actual off-rate probably slower.
The target of assay [14] is HXB2-gp41-inter-GCN4 (HIV-1 isolate HXB2) (UniProt P04578). In words: SPR, told of the gp41-inter proteins as a group.
Assay [15] addresses 92UG-gp41-inter-Fd (HIV-1 isolate 92UG037.8). In words: SPR, told of the gp41-inter proteins as a group.
In assay [16] the target is short 2F5 epitope peptide. In words: SPR, 2F5 Fab immobilized, 2F5 epitope peptide flowing.
Assay [17] deals with HXB2-gp41-inter-GCN4 (HIV-1 isolate HXB2) (UniProt P04578). In words: SPR, 2F5 Fab immobilized, HXB2gp41-inter-GCN4 flowing, 1:1 Langmuir model.
In another assay the target is T20 peptide. In words: SPR, 2F5 Fab immobilized, T20 flowing.
Assay [18] concerns the target 92UG-gp140-Fd trimer (HIV-1 isolate 92UG037.8). In words: SPR, 92UGgp140-Fd immobilized, 2G12 Fab flowing, 1:1 Langmuir model.

As a reminder, the Kd is the free concentration of one partner at which half of the binding sites on the other are occupied at equilibrium, for simple one-to-one binding. Read a high Kd as a looser complex. As usually defined, the koff is the first-order rate constant of dissociation. As usually defined, the kon is the second-order rate constant of association. Low values mean slow association, high ones fast association. For the substance 4E10 single-chain Fv fragment (scFv), in assay [1], the Kd worked out at 18.6 nM, the koff is 0.000685 s⁻¹ and the on-rate constant (kon) amounted to 36900 M⁻¹ s⁻¹. In assay [2], this substance had a Kd of 2.98 nM, a koff of 0.000443 s⁻¹ and a kon of 149000 M⁻¹ s⁻¹. Besides, in assay [3], the Kd was 1.07 nM, the koff is 0.000171 s⁻¹ and the kon was determined as 160000 M⁻¹ s⁻¹.

Turning to mAb b12 whole IgG (antibody), in assay [4], the Kd stood at 1400 nM. In assay [5], this substance yielded a Kd of 993 nM, a koff of 0.0149 s⁻¹ and a kon of 15000 M⁻¹ s⁻¹.

Consider mAb b6 whole IgG (antibody), for which, in assay [6], the Kd came to 2.69 nM, the koff came out at 0.000151 s⁻¹ and the kon is 56200 M⁻¹ s⁻¹.

For Fab fragment of mAb 2F5, the Kd is 5.33 nM in [7]; 3.24 nM in assay [9]; 1.38 nM in assay [10]; 1410 nM in assay [12]; less than 10 nM in assay [14]; less than 10 nM in assay [15]. Also, the Kd was found to be 3.83 nM in [16], 8.96 nM in [17] and 4.79 nM with T20 peptide. Further, the koff in [7] was 0.0015 s⁻¹; in assay [8], less than 1.4e-05 s⁻¹; in [9], 0.000496 s⁻¹; in [11], 6.11e-05 s⁻¹; in [12], 0.00243 s⁻¹; in [13] it was 1.39e-05 s⁻¹. Also, the koff in assay [16] is 0.00329 s⁻¹; with T20 peptide it was 0.00217 s⁻¹. Further, the kon in assay [7] is 282000 M⁻¹ s⁻¹; in assay [9], 153000 M⁻¹ s⁻¹; in assay [10], 10000 M⁻¹ s⁻¹; in [12], 1660 M⁻¹ s⁻¹; in assay [16], 859000 M⁻¹ s⁻¹; in [17], 6820 M⁻¹ s⁻¹. In the assay with T20 peptide, the kon worked out at 454000 M⁻¹ s⁻¹.

On to “Fab fragment of broadly neutralizing antibody 2G12”, for which, in assay [18], the Kd came to 17.9 nM, the koff is 0.000958 s⁻¹ and the kon was 53500 M⁻¹ s⁻¹.

The record behind these values is US20110086041A1.
